From the nanobody polyreactivity screen of Harvey et al. (2022) come the findings set out here.

The data set can be described thus: yeast display, Sf9 membrane polyspecificity reagent, FACS + sequencing; frameworks hold sequencing errors. In outline: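 After 36–48 hours of galactose induction, yeast (Saccharomyces cerevisiae BJ5465) displaying a synthetic nanobody library were stained at 4 °C for 1 hour with 10% biotinylated, detergent-solubilized Sf9 membrane reagent. Streptavidin microbeads enriched the stained cells before FACS sorting into low and high (top ~1%) gates on anti-HA and streptavidin fluorescence. Each clone's polyreactivity label reflects its gate of origin.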
On to “QVQLVESGGGLVQAGGSLRLICSASGRTFAGYVMGWYRQAHGKERELVAAINASGGSTYYADSVKGRFTISRDNAKNTVYLQKNILKPEDTAVYYCAAARLGSDITRRYYYWGQGTQVTVSS”, for which the “polyreactivity (PSR sort gate)” value is recorded as “high polyreactivity”.
With “QVQRVESGGGLVQAGGSLRVSCAASGSTFYVYGMGWYRQAPGKERELVAAISWSGGDTYYADSVKGRCTISRDNAKNTVYLQMNRLKPEDTAVYYCAAVYNYPVVGEYDYWGQGTQVTVSA” the entry was “high polyreactivity”; with “QVQLVESGGGLVQAGGSLRLSCAASGRTFYVNAMGWSRHAPGIERELVAGISFSDGSTYYADSVKWRFTISRDNAKSTVYLQMNSLKPEDTAVYYCATVGALDIYYGYGYWGQGTQVTVSS”, “low polyreactivity”.
In the case of “QVQHVESGGGLVQAGGSLRLSSAASGHTFHRYAMGWYRQARWKESELVAAISDSGSSSYYADSVKRRFTISRDYAKYTVYLQMNSLKPEDTALYYCAAVSGFFDQYDYWGQGTQVTVSS”, the “polyreactivity (PSR sort gate)” value is listed as “low polyreactivity”.
With “QVQLVESGGGLVQAGGRLRLSSAASGFIFAYNAMGWYRQGPGKERELVASIRTRGGSTYYADSVKGRFTISRDNAKNTVYLQMNSLKPEDTSVYYCAARPFPRRYDYWGQGSQVTVSS” the entry was “low polyreactivity”; with “QVQLVESGGGLVQAGGSLRLSCAASGSIFADYTMGWYRQAPGKERELVAAITSGGSTYYADSVKGRFTISRDNAKNTVYLQMNSLKPEDTAVYYCAAYYGGRGYWGQGTQVTVSS”, “low polyreactivity”.
Under “QVQLVESGGGIVQAGGSLRLSCAASGRTFYYAMGWYRQAPGKERELVAAITSSSSTYYADSVKGRFTISRDNAKNTVYLQMNSLKPEDTAVYYCNSADDPYGSPSYGYDYWGQGTQVTVSS” stands “low polyreactivity”; under “QDQLVESGGGLVQAGGSLRLSCAASGGTFKFYAMGWYRQAPGKERELVAAITSGGSTSYADSVKGRFTISRDNAKNTVYLQMNSLKPEDTAVYYCNADFYQRYGVFSSRRYYYWGQGTQVTVSS”, “high polyreactivity”; under “QVQLVESGGGLVQAGGSLRLSCAASGFIFPLYTMGWYRQAPGKERELVAAISVTGGSTYYADSVKGRFTISRDNAKNTVYLQMNSLKPEDTAVYYCNAYLFFLNRVWSFDYWGQGTQVTVSS”, “high polyreactivity”.
Regarding “QVQVVESGGGLVQAGGSLRLSCAASGFTFYPNAMGWYRQAPGKERELVATITGSGGSTNYADSVKGRFPISRDTAQNTVYLQMNSLKPEDTAVYYCAADYAVYSFTDFNYWGQGTQVTVSS”, the “polyreactivity (PSR sort gate)” value is “high polyreactivity”.
Under “QVQLVESGGGLVQARGSLRLSCAASGSTFAYNAMGWYRKAPGKERELVADITSTGTSTYADSVKGRFTISRDNAKNTVYLQMNSLKPEDTAVYYCNADYDSTYVGYDYWGQGTQVTVSS” stands “low polyreactivity”; under “QVQLVESGGGLVQAGGSLRLSCAASGYNFYGYAMGWYRLAPGKERELVAAITVRGGSTYYADSVKGRFTISRDNAKNTVYLQMNCQKPEETAVYYCAAAPQFTFGVGYWGQGTQVTVSS”, “low polyreactivity”; under “QVQLVESGGGLVQAGGSLRLSCAASGSIFGLNAMGWYRQPPGKERELVAAINSDGDTYYADSVKGRFTISRDNAKNTVYLQMNSLKPEDTAVYYCSADYYWDPFDSNFGHVPQEYESWGQGTQVTVSS”, “low polyreactivity”.
“QVQLVESGGGLVQAGGSLRLSCAASGSNFTSYAMGWYRQAPGKERELVAAITRGGRTYYADSVKGRFTISRDNAKNTVYLQMNSLKPEDTAVFYCNAPGYRGYEYWGQGTQVTVSS”: the “polyreactivity (PSR sort gate)” value was “high polyreactivity”.
“HVQLVESGGGLVQAGGSLRLSCAASGSTFTLNVMGWYRQAPGKERELVAGISKRGGNTYYADSVKGRFTISRDNAKNTVYLQMNSLKPEDTAVYYCATYSRIFKWEYYYWGQGTQVTVSS”: the “polyreactivity (PSR sort gate)” value is recorded as “high polyreactivity”.
Under “QVQLVESGGGLVQAGGSLRLRCAASGRIFRIYPMGWYRQAPGKERELVARITYSGGSTYYADSVKGRFTISRDNAKNTVYLQMNSLKPEDTAVYYCAADWLGYQYGYWGQGTQVTVSS” stands “low polyreactivity”.
Regarding “QVQLVESGGSLVQAGGSLLLSSAASLRTFGVNDIGWYRKAPGKERNFVAAISYSDTSTYYADSVKVSFTISRDNAKNTVYLQMNSLKPEDTAVYYCAVETYLQYDNGYGHDYWGQGTQVTVSS”, the “polyreactivity (PSR sort gate)” value was “low polyreactivity”.
Under “QVQLVESGGGLVQAGGSLRLSCAASGSTFYPYAMGWYRQAPGKERELVAAISSRDGRTYYADSVKGRFTISRDNAKNTVYLQMNSLKPEDTAVYYCAAVRALRKVRDYYYWGQGTQVTVSS” stands “high polyreactivity”; under “QVQLVESCGGLVQAGGSLRLSCAASGSTFGYYTMGWYRQAPGKEREFVAAITRSTGSTFYADSVKGRFTISRDNAKNTVYLQMNRLKPEDTAVYDCAATQPWYNTRTRYGSWGQGTQVTVSS”, “low polyreactivity”; under “QVQLVESGGGLVQAGGSLRLSCAASGRIFRSYAMGWYRQAPGKERELVAAISYSGGSTYYADSVKGRFTISRDNAKNTVYLQMNSLKPEDTAVYYCAALPGERKYIYYGYDYWGQGTQVTVSS”, “high polyreactivity”.
With “QVQLVESGGGLVQAGGSLRLSCAASGRIFGLYAMGWYRQAPGKEREFVAAIRLSGGSTYYADSVKGRFTISRDNAKNTVYLQMISLKPEDTAVYYCAADLSYNRGRGSRVYYWGQGTQVTVSS” the entry was “high polyreactivity”.
Under “QVQLVESGGGLVQAGGSLRLSCAASGSIFDGNAMVSYRQAPGKDRELVADISRGGSTYYADSVKGPFTISRDNAKNTVYLQMNSLTPEDTAVYYCNVEFFFWPYEYGYWGQGTQVTVSS” stands “low polyreactivity”; under “QVQLVESGGGLVQAGGSLRLSCAASGSIFAVYAMGWYRQAPGKERELVAASSTDYAESVKGRFTISRDNAKNTVFLQLNRLKPEDTAVYYCAKVGFGIPGGFYYWGQGTQVTVSS”, “low polyreactivity”.
For the sequence “QVQLVESGGGLVQAAGSLRLSCAASGSTFDNKVMGWYRQAPGKERELVATITWGDGSTSYADSVKGRFTISRDIAKNTVYLELNSRKREDTAVYFCAAGEYYHRIFLWYVYWGQGTKVTVSS”, the “polyreactivity (PSR sort gate)” value was “low polyreactivity”.
Under “QVQLVESGGGLVQAGGSLRLSCAASGFIFRYYAMGWYTQAPGKERELVAAISYSGGSTYYADSVKGRFTITRDNAKNTVYLQMNSLKPEDTAVYYCAAVTVKSNQYLYYVYPYGMGYWGQGTQVTVSS” stands “high polyreactivity”; under “QVQLVESGGGLVQAGGSLRLSCAASGRTYLPNDMGWYRPAPGKERELVAAITDSGGDTYYADSVKGRFTISRDIAKNTVYLQMNSLKPEDTAVYYCAADYYYYGSYYPVEYWGHGTQVTVSS”, “high polyreactivity”; under “QVQLVESGGGLVQAGGSLRLSCPASGRIFYPYPKGWYRQAPGKERELVATITRTGSTYYADSVKGRFTITRDNAKNTVYVQMNSLKPEDPAVYYCAVQRSYVGPRQYNYWGQGTQVTVSS”, “high polyreactivity”.
On to “QVQLVESGGGLVQAGGSLRLSCAASGLTFFYYAMGWYRQAPGKERELVASITWRSGSTYYADSVKGRFTISRDNAKNTVYLQMNSLKPEDTAVYYCAAYPYTYLQLMDYWGQGTQVTVSS”, for which the “polyreactivity (PSR sort gate)” value was “high polyreactivity”.
With “QVQLVESGGGLVQAGGSLRLSCAASGFTFTWNTMGWYRQAPGKERELVAAITKSAGSTYYADSVKGRFTISRDNAKNTVYLQMNSLKPEDTAVYYCAARRVSRGNSKFDYYWGQGTQVTVSS” the entry was “high polyreactivity”.
Under “QVQIVESGAGLVQAGGTLRISCAPSGITFTPYAMGWYRQAPGKEWELVATITSDGGSTYYADSVKGRFTISRDNAKNTVYLQKNSLKPEETAVYYCAAADHAWLYGWGYSLDVWYYYWGQGNQVTVSS” stands “low polyreactivity”.
